Measured values: the Immune Epitope Database (IEDB)

Key:
[1] = molecular target: HLA-B*35:01; assay: IEDB peptide-MHC binding, purified MHC/direct/fluorescence; filed as Kd, often an IC50 or EC50 that approximates it; ≥ and ≤ were set here for values at or beyond the usual limits of such assays
[2] = molecular target: HLA-B*07:02; assay: as above
[3] = molecular target: HLA-A*24:03; assay: as above
[4] = molecular target: HLA-B*27:05; assay: as above
[5] = molecular target: HLA-A*31:01; assay: as above
[6] = molecular target: HLA-A*03:01; assay: as above
[7] = molecular target: HLA-B*44:02; assay: as above; conditions: source organism: Vibrio parahaemolyticus
[8] = molecular target: HLA-B*08:01; assay: as above
[9] = molecular target: HLA-B*39:01; assay: as above
[10] = molecular target: HLA-B*58:01; assay: as above
[11] = molecular target: HLA-A*11:01; assay: as above
[12] = molecular target: HLA-A*02:01; assay: as above
[13] = molecular target: HLA-B*40:01; assay: as above; conditions: source organism: Vibrio parahaemolyticus
[14] = molecular target: HLA-A*69:01; assay: as above
[15] = molecular target: HLA-B*15:01; assay: as above
[16] = molecular target: HLA-A*01:01; assay: as above
[17] = molecular target: HLA-A*26:01; assay: as above
[18] = molecular target: HLA-B*57:01; assay: as above
[19] = molecular target: HLA-B*15:17; assay: as above
[20] = molecular target: HLA-B*18:01; assay: as above
[21] = molecular target: HLA-A*23:01; assay: as above; conditions: source organism: Bacillus anthracis
[22] = molecular target: HLA-A*24:02; assay: as above; conditions: source organism: Bacillus anthracis
[23] = molecular target: HLA-B*15:09; assay: as above
[24] = molecular target: HLA-A*68:02; assay: IEDB peptide-MHC binding, purified MHC/competitive/fluorescence; filed as Kd, often an IC50 or EC50 that approximates it; ≥ and ≤ were set here for values at or beyond the usual limits of such assays; conditions: source organism: Bacillus anthracis str. A2012
[25] = molecular target: HLA-A*30:01; assay: IEDB peptide-MHC binding, purified MHC/direct/fluorescence; filed as Kd, often an IC50 or EC50 that approximates it; ≥ and ≤ were set here for values at or beyond the usual limits of such assays; conditions: source organism: Vibrio parahaemolyticus
[26] = molecular target: HLA-B*39:01; assay: IEDB peptide-MHC binding, purified MHC/competitive/fluorescence; filed as Kd, often an IC50 or EC50 that approximates it; ≥ and ≤ were set here for values at or beyond the usual limits of such assays; conditions: source organism: Yersinia pestis Nepal516
[27] = molecular target: HLA-A*02:01; assay: as above; conditions: source organism: Yersinia pestis Nepal516
[28] = molecular target: HLA-B*40:01; assay: as above
[29] = molecular target: HLA-B*15:01; assay: as above
[30] = molecular target: HLA-C*14:02; assay: IEDB peptide-MHC binding, purified MHC/direct/fluorescence; filed as Kd, often an IC50 or EC50 that approximates it; ≥ and ≤ were set here for values at or beyond the usual limits of such assays; conditions: source organism: Salmonella enterica subsp. enterica serovar Typhi str. CT18
[31] = molecular target: HLA-A*29:02; assay: IEDB peptide-MHC binding, purified MHC/competitive/fluorescence; filed as Kd, often an IC50 or EC50 that approximates it; ≥ and ≤ were set here for values at or beyond the usual limits of such assays; conditions: source organism: Homo sapiens
[32] = molecular target: HLA-A*01:01; assay: as above; conditions: source organism: Homo sapiens
[33] = molecular target: HLA-B*48:01; assay: IEDB peptide-MHC binding, purified MHC/direct/fluorescence; filed as Kd, often an IC50 or EC50 that approximates it; ≥ and ≤ were set here for values at or beyond the usual limits of such assays; conditions: source organism: Francisella tularensis subsp. holarctica LVS
[34] = molecular target: HLA-A*68:02; assay: as above; conditions: source organism: Francisella tularensis subsp. holarctica LVS
[35] = molecular target: HLA-B*08:01; assay: IEDB peptide-MHC binding, purified MHC/competitive/fluorescence; filed as Kd, often an IC50 or EC50 that approximates it; ≥ and ≤ were set here for values at or beyond the usual limits of such assays; conditions: source organism: Francisella tularensis subsp. tularensis FSC198
[36] = molecular target: HLA-A*26:02; assay: as above; conditions: source organism: Francisella tularensis subsp. tularensis FSC198
[37] = molecular target: HLA-A*02:03; assay: as above; conditions: source organism: Francisella tularensis subsp. tularensis FSC198
[38] = molecular target: HLA-A*02:11; assay: as above; conditions: source organism: Haemophilus influenzae 22.1-21
[39] = molecular target: HLA-A*02:12; assay: as above; conditions: source organism: Haemophilus influenzae 22.1-21
[40] = molecular target: HLA-C*05:01; assay: IEDB peptide-MHC binding, purified MHC/direct/fluorescence; filed as Kd, often an IC50 or EC50 that approximates it; ≥ and ≤ were set here for values at or beyond the usual limits of such assays; conditions: source organism: Salmonella enterica subsp. enterica serovar Typhi str. CT18
[41] = molecular target: HLA-B*51:01; assay: IEDB peptide-MHC binding, purified MHC/competitive/fluorescence; filed as Kd, often an IC50 or EC50 that approximates it; ≥ and ≤ were set here for values at or beyond the usual limits of such assays; conditions: source organism: Salmonella enterica subsp. enterica serovar Typhi
[42] = molecular target: HLA-B*07:02; assay: as above; conditions: source organism: Salmonella enterica subsp. enterica serovar Typhi
[43] = source organism: Pseudomonas sp. KIE171
[44] = source organism: Vibrio parahaemolyticus
[45] = source organism: Bacillus anthracis
[46] = source organism: Bacillus anthracis str. A0465
[47] = source organism: Yersinia pestis Nepal516
[48] = source organism: Francisella tularensis subsp. holarctica LVS
[49] = source organism: Francisella tularensis subsp. tularensis FSC033
[50] = source organism: Escherichia coli B171
[51] = source organism: Haemophilus influenzae

Sequence: VPWQEKTAS
- Kd [1, 43]: 0.00328 µM
- Kd [2, 43]: 5.81 µM
- Kd [3, 43]: 10.5 µM

Sequence: NSDPEFNVL
- Kd [4, 44]: ≥ 20 µM
- Kd [5, 44]: ≥ 20 µM
- Kd [6, 44]: ≥ 20 µM
- Kd [7]: ≥ 20 µM
- Kd [8, 44]: ≥ 20 µM
- Kd ([9]; source organism: Vibrio parahaemolyticus AQ3810): 0.013 µM
- Kd [10, 44]: ≥ 20 µM
- Kd [11, 44]: ≥ 20 µM
- Kd [12, 44]: ≥ 20 µM
- Kd [13]: 5.06 µM
- Kd [1, 44]: 0.208 µM
- Kd [14, 44]: ≥ 20 µM
- Kd [15, 44]: ≥ 20 µM
- Kd [16, 44]: 0.387 µM
- Kd [17, 44]: ≥ 20 µM
- Kd [2, 44]: ≥ 20 µM

Sequence: YFENSDLNL
- Kd [4, 45]: ≥ 20 µM
- Kd [18, 45]: ≥ 20 µM
- Kd [5, 45]: ≥ 20 µM
- Kd [19, 45]: ≥ 20 µM
- Kd [6, 45]: ≥ 20 µM
- Kd [8, 46]: ≥ 20 µM
- Kd [9, 46]: ≥ 20 µM
- Kd [10, 45]: ≥ 20 µM
- Kd [11, 45]: ≥ 20 µM
- Kd [12, 45]: ≥ 20 µM
- Kd [20, 45]: ≥ 20 µM
- Kd [21]: 0.65 µM
- Kd [22]: 7.5 µM
- Kd [15, 45]: ≥ 5 µM
- Kd [16, 45]: ≥ 20 µM
- Kd [17, 46]: ≥ 20 µM
- Kd [2, 45]: ≥ 20 µM
- Kd [3, 45]: 0.13 µM
- Kd [23, 46]: ≥ 20 µM
- Kd [24]: ≥ 20 µM

Sequence: VMETENALF
- Kd [4, 44]: ≥ 20 µM
- Kd [5, 44]: ≥ 20 µM
- Kd [6, 44]: ≥ 20 µM
- Kd [7]: ≥ 20 µM
- Kd [8, 44]: ≥ 20 µM
- Kd [25]: ≥ 44.8 µM
- Kd [11, 44]: ≥ 20 µM
- Kd [12, 44]: ≥ 20 µM
- Kd [13]: ≥ 20 µM
- Kd [1, 44]: 0.427 µM
- Kd [14, 44]: ≥ 20 µM
- Kd [15, 44]: 0.301 µM
- Kd [16, 44]: 5.02 µM
- Kd [17, 44]: ≥ 20 µM

Sequence: SQMGLSCAL
- Kd [26]: 0.0035 µM
- Kd [27]: 0.0046 µM
- Kd [28, 47]: 0.567 µM
- Kd [29, 47]: 0.0976 µM

Sequence: AETLMAQPF
- Kd [30]: 2.31 µM
- Kd ([28]; source organism: Salmonella enterica subsp. enterica serovar Typhi): 0.0122 µM

Sequence: SVDGFRASY
- Kd [31]: 0.0013 µM
- Kd [32]: 0.0071 µM

Sequence: KRINSLIKY
- Kd [4, 48]: 0.132 µM
- Kd [18, 48]: ≥ 20 µM
- Kd [5, 48]: ≥ 20 µM
- Kd [19, 48]: ≥ 20 µM
- Kd [9, 49]: ≥ 20 µM
- Kd [33]: ≥ 20 µM
- Kd [10, 48]: ≥ 20 µM
- Kd [11, 48]: ≥ 20 µM
- Kd [20, 48]: ≥ 20 µM
- Kd [14, 48]: ≥ 20 µM
- Kd [16, 48]: ≥ 20 µM
- Kd [2, 48]: ≥ 20 µM
- Kd [23, 49]: ≥ 20 µM
- Kd [34]: ≥ 20 µM
- Kd [35]: ≥ 20 µM
- Kd [36]: ≥ 20 µM
- Kd ([29]; source organism: Francisella tularensis subsp. tularensis FSC198): 3 µM
- Kd [37]: 2.47 µM

Sequence: AELRLVHEL
- Kd [28, 50]: 0.0069 µM
- Kd [29, 50]: ≥ 20 µM

Sequence: RFLEDYFGV
- Kd [5, 51]: 0.558 µM
- Kd [12, 51]: 0.141 µM
- Kd [14, 51]: 0.547 µM
- Kd [38]: 0.0041 µM
- Kd [39]: 0.0443 µM

Sequence: FPPGTSLTI
- Kd [40]: ≥ 20 µM
- Kd [41]: 0.564 µM
- Kd [42]: 0.187 µM

Sequence: EHIPTMKIF
- Kd ([9]; source organism: Camelpox virus M-96): 1.34 µM
- Kd ([23]; source organism: Variola virus): 0.304 µM

Sequence: HHSLTHHQL
- Kd ([23]; source organism: Escherichia coli O157:H7 str. EC869): 0.002 µM
